The data set deals with the molecule itself. The experiment in a line: SAXS; oxidizing conditions (100 μM H2O2), SCGN about 5-15 mg/ml, without or with 8 mM Ca2+; 50 mM Tris pH 7.5, 100 mM KCl.

B1: Secretagogin (mouse SCGN) (natural protein, UniProt Q91WD9 1-276, looked up)
chain: MDNARRKTPARLDAACFWQIWQRFDKEEKGYIRETELDAFFDHLLAKSGTEDTLMEENVQKVKEQLMTSHNVSKEGRILMKELASMFLSEDENFLLFFRLETPLDNSVEFMQIWRKYDADSSGFISAAELCNFLRDLFLHHKKNISEAELEEYTSTMMKIFDKNKDGRLDLNDLARILALQENFLLQFKMDASSTEERKRDFEKIFAHYDVSKTGALEGPEVDGFVKDMMELVQPSISGVDLDKFREILLRHCDVNKDGKIQKSELALCLGLKINP
notes: secretagogin, mouse, cloned in pET21b; Used Ca2+-free (apo) or with Ca2+ (holo); the assays tell them apart; also called apo-SCGN; holo-SCGN; source: E. coli BL21-DE3 (pET21b), purified (Ni-NTA-Sepharose, size-exclusion chromatography), decalcified with EDTA
As to B1, the binding result is given as “binds”.
